± gives the standard deviation of the averaged measurements.
Assay: total protein half-life in vivo (active degradation + dilution); higher = more stable protein
[1] = E. coli NCM3722 delta-clpP delta-lon delta-hslV, growth: N-lim chemostat, doubling time 6 h
[2] = E. coli NCM3722 delta-clpP, growth: N-lim chemostat, doubling time 6 h
[3] = E. coli NCM3722 delta-hslV, growth: N-lim chemostat, doubling time 6 h
[4] = E. coli NCM3722 delta-lon, growth: N-lim chemostat, doubling time 6 h
[5] = E. coli NCM3722 delta-smpB, growth: N-lim chemostat, doubling time 6 h
[6] = wild type E. coli NCM3722, growth: C-lim chemostat, doubling time 3 h
[7] = wild type E. coli NCM3722, growth: C-lim chemostat, doubling time 6 h
[8] = wild type E. coli NCM3722, growth: C-lim chemostat, doubling time 12 h
[9] = wild type E. coli NCM3722, growth: N-lim chemostat, doubling time 6 h
[10] = wild type E. coli NCM3722, growth: N-lim chemostat, doubling time 12 h
[11] = wild type E. coli NCM3722, growth: P-lim chemostat, doubling time 6 h
[12] = wild type E. coli NCM3722, growth: P-lim chemostat, doubling time 12 h

Row | Sequence | total protein half-life in vivo [1] [h] | total protein half-life in vivo [2] [h] | total protein half-life in vivo [3] [h] | total protein half-life in vivo [4] [h] | total protein half-life in vivo [5] [h] | total protein half-life in vivo [6] [h] | total protein half-life in vivo [7] [h] | total protein half-life in vivo [8] [h] | total protein half-life in vivo [9] [h] | total protein half-life in vivo [10] [h] | total protein half-life in vivo [11] [h] | total protein half-life in vivo [12] [h]
1 | MYQPVALFIGLRYMRGRAADRFGRFVSWLSTIGITLGVMALVTVLSVMNGFERELQNNILGLMPQAILSSEHGSLNPQQLPETAVKLDGVNRVAPITTGDVVLQSARSVAVGVMLGIDPAQKDPLTPYLVNVKQTDLEPGKYNVILGEQLASQLGVNRGDQIRVMVPSASQFTPMGRIPSQRLFNVIGTFAANSEVDGYEMLVNIEDASRLMRYPAGNITGWRLWLDEPLKVDSLSQQKLPEGSKWQDWRDRKGELFQAVRMEKNMMGLLLSLIVAVAAFNIITSLGLMVMEKQGEVAILQTQGLTPRQIMMVFMVQGASAGIIGAILGAALGALLASQLNNLMPIIGVLLDGAALPVAIEPLQVIVIALVAMAIALLSTLYPSWRAAATQPAEALRYE [P0ADC3] | 6.47 ± 0.46 | 6.838 ± 0.034 | 6.01 ± 0.34 | 6.53 ± 1.3 | 6.43 ± 0.65 | 3.11 ± 0.068 | 5.78 ± 1.3 | 12.3 ± 0.59 | 5.8 ± 0.06 | 13.1 ± 1.6 | 6.178 ± 0.04 | 12.3 ± 1.1
2 | MIIYLHGFDSNSPGNHEKVLQLQFIDPDVRLISYSTRHPKHDMQHLLKEVDKMLQLNVDERPLICGVGLGGYWAERIGFLCDIRQVIFNPNLFPYENMEGKIDRPEEYADIATKCVTNFREKNRDRCLVILSRNDEALNSQRTSEELHHYYEIVWDEEQTHKFKNISPHLQRIKAFKTLG [P0A8E1] | 4.77 ± 0.071 | 4.58 ± 1.1 | 4.44 ± 0.73 | 4.75 ± 0.35 | 4.37 ± 0.91 | 2.64 ± 0.47 | 4.65 ± 0.2 | 7.7 ± 1.6 | 3.92 ± 0.39 | 6.49 ± 0.25 | 5.07 ± 0.15 | 10.6 ± 0.38
3 | MLQISHLYADYGGKPALEDINLTLESGELLVVLGPSGCGKTTLLNLIAGFVPYQHGSIQLAGKRIEGPGAERGVVFQNEGLLPWRNVQDNVAFGLQLAGIEKMQRLEIAHQMLKKVGLEGAEKRYIWQLSGGQRQRVGIARALAANPQLLLLDEPFGALDAFTRDQMQTLLLKLWQETGKQVLLITHDIEEAVFMATELVLLSSGPGRVLERLPLNFARRFVAGESSRSIKSDPQFIAMREYVLSRVFEQREAFS | 4.76 |  |  |  |  |  |  |  |  |  |  | 
4 | MSNNIRIEEDLLGTREVPADAYYGVHTLRAIENFYISNNKISDIPEFVRGMVMVKKAAAMANKELQTIPKSVANAIIAACDEVLNNGKCMDQFPVDVYQGGAGTSVNMNTNEVLANIGLELMGHQKGEYQYLNPNDHVNKCQSTNDAYPTGFRIAVYSSLIKLVDAINQLREGFERKAVEFQDILKMGRTQLQDAVPMTLGQEFRAFSILLKEEVKNIQRTAELLLEVNLGATAIGTGLNTPKEYSPLAVKKLAEVTGFPCVPAEDLIEATSDCGAYVMVHGALKRLAVKMSKICNDLRLLSSGPRAGLNEINLPELQAGSSIMPAKVNPVVPEVVNQVCFKVIGNDTTVTMAAEAGQLQLNVMEPVIGQAMFESVHILTNACYNLLEKCINGITANKEVCEGYVYNSIGIVTYLNPFIGHHNGDIVGKICAETGKSVREVVLERGLLTEAELDDIFSVQNLMHPAYKAKRYTDESEQ [P0AC38] | 5.54 ± 0.31 | 5.5 ± 1.1 | 1.13 ± 0.052 | 1.68 ± 0.16 | 1.68 ± 0.45 | 2.42 ± 0.11 | 4.284 ± 0.012 | 6.58 ± 0.62 | 3.1 ± 0.18 | 2.93 ± 0.087 | 4.79 ± 0.14 | 9.237 ± 0.036
5 | MKIKTILTPVTCALLISFSAHAANADNYKNVINRTGAPQYMKDYDYDDHQRFNPFFDLGAWHGHLLPDGPNTMGGFPGVALLTEEYINFMASNFDRLTVWQDGKKVDFTLEAYSIPGALVQKLTAKDVQVEMTLRFATPRTSLLETKITSNKPLDLVWDGELLEKLEAKEGKPLSDKTIAGEYPDYQRKISATRDGLKVTFGKVRATWDLLTSGESEYQVHKSLPVQTEINGNRFTSKAHINGSTTLYTTYSHLLTAQEVSKEQMQIRDILARPAFYLTASQQRWEEYLKKGLTNPDATPEQTRVAVKAIETLNGNWRSPGGAVKFNTVTPSVTGRWFSGNQTWPWDTWKQAFAMAHFNPDIAKENIRAVFSWQIQPGDSVRPQDVGFVPDLIAWNLSPERGGDGGNWNERNTKPSLAAWSVMEVYNVTQDKTWVAEMYPKLVAYHDWWLRNRDHNGNGVPEYGATRDKAHNTESGEMLFTVKKGDKEETQSGLNNYARVVEKGQYDSLEIPAQVAASWESGRDDAAVFGFIDKEQLDKYVANGGKRSDWTVKFAENRSQDGTLLGYSLLQESVDQASYMYSDNHYLAEMATILGKPEEAKRYRQLAQQLADYINTCMFDPTTQFYYDVRIEDKPLANGCAGKPIVERGKGPEGWSPLFNGAATQANADAVVKVMLDPKEFNTFVPLGTAALTNPAFGADIYWRGRVWVDQFWFGLKGMERYGYRDDALKLADTFFRHAKGLTADGPIQENYNPLTGAQQGAPNFSWSAAHLYMLYNDFFRKQ |  |  |  |  | 6.15 |  |  |  |  |  |  | 
6 | MSSRNNPARVAIVMGSKSDWATMQFAAEIFEILNVPHHVEVVSAHRTPDKLFSFAESAEENGYQVIIAGAGGAAHLPGMIAAKTLVPVLGVPVQSAALSGVDSLYSIVQMPRGIPVGTLAIGKAGAANAALLAAQILATHDKELHQRLNDWRKAQTDEVLENPDPRGAA [P0AG18] | 5.15 ± 0.26 | 4.94 ± 0.41 | 4.8 ± 0.085 | 4.93 ± 0.088 | 4.71 ± 0.3 | 2.77 ± 0.034 | 5.47 ± 0.46 | 9.5 ± 0.76 | 4.67 ± 0.13 | 6.68 ± 0.46 | 5.68 ± 0.13 | 10.9 ± 0.31
7 | MIAELFTNNALNLVIIFGSCAALILMSFWFRRGNRKRKGFLFHAVQFLIYTIIISAVGSIINYVIENYKLKFITPGVIDFICTSLIAVILTIKLFLLINQFEKQQIKKGRDITSARIMSRIIKITIIVVLVLLYGEHFGMSLSGLLTFGGIGGLAVGMAGKDILSNFFSGIMLYFDRPFSIGDWIRSPDRNIEGTVAEIGWRITKITTFDNRPLYVPNSLFSSISVENPGRMTNRRITTTIGLRYEDAAKVGVIVEAVREMLKNHPAIDQRQTLLVYFNQFADSSLNIMVYCFTKTTVWAEWLAAQQDVYLKIIDIVQSHGADFAFPSQTLYMDNITPPEQGR [P0AEB5] | 6.12 ± 0.49 | 6.41 ± 0.17 | 6.48 ± 0.5 | 6.71 ± 0.27 | 6.07 ± 0.36 | 3.02 ± 0.1 | 6.34 ± 0.4 | 11.9 ± 0.12 | 6.02 ± 0.14 | 12.7 ± 1.4 | 5.86 ± 0.78 | 
